From paper PMC9645763, “CK2-mediated phosphorylation of SUZ12 promotes PRC2 function by stabilizing enzyme active site” (Nature Communications, 2022)

Target: T1, EZH1 of the truncated minimal complex used for crystallization (human, UniProt Q92800 1-187; Q92800 230-491; Q92800 497-747, residues 353–413 of EZH1 were deleted)
T1 construct: human EZH1, residues 1-187; linker that replaces residues 188–229 of EZH1; human EZH1, residues 230-491 with 353–413 deleted; linker that replaces residues 492–496 of EZH1; human EZH1, residues 497-747; In the crystal joined on one chain with m3 through an LVPRGS linker; source: S. cerevisiae CB010, purified (IgG-sepharose, TEV cleavage, Superdex 200); not shown: His6, N-terminal, …
T1 sequence (Q92800 other isoform, or with tags, fused parts or gaps with the stated changes): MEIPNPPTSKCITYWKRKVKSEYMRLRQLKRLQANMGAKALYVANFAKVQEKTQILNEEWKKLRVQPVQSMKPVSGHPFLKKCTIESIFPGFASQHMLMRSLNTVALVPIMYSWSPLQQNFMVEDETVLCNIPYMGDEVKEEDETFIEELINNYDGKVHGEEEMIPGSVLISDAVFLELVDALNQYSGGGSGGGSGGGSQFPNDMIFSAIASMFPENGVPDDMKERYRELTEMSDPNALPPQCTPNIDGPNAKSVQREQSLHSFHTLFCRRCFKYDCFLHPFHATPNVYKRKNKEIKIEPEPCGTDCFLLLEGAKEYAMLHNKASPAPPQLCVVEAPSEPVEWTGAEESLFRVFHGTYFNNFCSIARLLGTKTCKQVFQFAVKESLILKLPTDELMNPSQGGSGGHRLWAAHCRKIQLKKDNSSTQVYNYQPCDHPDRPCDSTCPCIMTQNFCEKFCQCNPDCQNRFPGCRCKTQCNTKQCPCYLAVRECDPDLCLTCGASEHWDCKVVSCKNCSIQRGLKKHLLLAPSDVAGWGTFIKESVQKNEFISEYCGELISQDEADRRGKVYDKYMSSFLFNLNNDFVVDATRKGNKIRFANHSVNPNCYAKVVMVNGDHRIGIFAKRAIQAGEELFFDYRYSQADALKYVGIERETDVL
Assay: crystal structure; truncated minimal EZH1–EED–SUZ12(VEFS) complex at 10 mg/ml pre-incubated with 0.5 mM H3K27M peptide, 0.5 mM H3K27me3 peptide and 1 mM SAM; 10% PEG3350, 100 mM ammonium sulfate, 50 mM HEPES pH 6.8; 3.0 Å
Conditions: both partners purified

binding result: binds
B1: EED of the truncated minimal complex used for crystallization (domain or fragment)
chain: not shown
notes: human EED, residues 1–77 replaced by a StrepII tag; source: S. cerevisiae CB010, co-expressed, purified with the complex (IgG-sepharose, TEV cleavage, Superdex 200); not shown: StrepII, N-terminal, kept
